Reference: paper PMC6633205, “Cus2 enforces the first ATP-dependent step of splicing by binding to yeast SF3b1 through a UHM–ULM interaction” (RNA, 2019)
Where a chain is given by its changes, count along the chain named. In names and notes the source's numbering stands.

Key:
[1] = molecular target: SF3b1 ULM5 (Homo sapiens) (UniProt O75533); conditions: cited from earlier work
[2] = molecular target: T1, GB1-Cus2, full length, with N-terminal His-tag and GB1 solubility tag (S. cerevisiae, UniProt P53830 1-285); experiment: pull-down; GST-fusion protein or GST (100 µg) immobilised on glutathione agarose, GB1-Cus2 (500 µg in 500 µL) added for 30 min; 100 mM NaCl, 25 mM HEPES pH 7.4, 10% glycerol, 0.1% NP-40; six washes; SDS-PAGE, Coomassie; conditions: both partners purified
T1 construct: also called full-length Cus2 protein; not shown: GB1, N-terminal, kept
T1 sequence (looked up): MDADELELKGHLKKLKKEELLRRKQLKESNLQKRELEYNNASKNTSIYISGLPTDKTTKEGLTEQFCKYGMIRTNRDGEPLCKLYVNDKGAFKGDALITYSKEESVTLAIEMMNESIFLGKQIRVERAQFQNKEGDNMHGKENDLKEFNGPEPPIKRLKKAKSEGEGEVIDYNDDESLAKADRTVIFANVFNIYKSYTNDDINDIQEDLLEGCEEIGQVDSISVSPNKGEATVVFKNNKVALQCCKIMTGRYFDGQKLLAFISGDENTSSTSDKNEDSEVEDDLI

Tat-SF1 (residues 1-360) [3] = molecular target: T2, Tat-SF1 (residues 1-360) (human, UniProt O43719 1-360); experiment: ITC
T2 chain: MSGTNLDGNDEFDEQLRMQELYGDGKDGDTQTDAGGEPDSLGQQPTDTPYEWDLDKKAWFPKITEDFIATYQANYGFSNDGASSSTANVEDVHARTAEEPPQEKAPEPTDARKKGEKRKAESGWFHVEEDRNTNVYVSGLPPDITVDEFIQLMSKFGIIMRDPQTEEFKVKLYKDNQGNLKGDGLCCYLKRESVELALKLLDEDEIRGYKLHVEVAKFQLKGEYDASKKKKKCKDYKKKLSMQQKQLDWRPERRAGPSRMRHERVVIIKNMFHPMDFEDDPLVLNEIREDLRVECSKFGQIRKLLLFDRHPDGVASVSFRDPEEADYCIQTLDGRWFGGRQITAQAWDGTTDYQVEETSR

[4] = molecular target: T3, Cus2, full length, fused to the GAL4 DNA-binding domain (S. cerevisiae, UniProt P53830 1-285); experiment: cell-based or functional assay
T3 sequence (looked up): T1 sequence (looked up)

[5] = molecular target: T4, Cus2, full length, with C-terminal His-tag (S. cerevisiae, UniProt P53830 1-285); experiment: ITC; apparent; Cus2 or Tat-SF1 proteins titrated with Hsh155 ULM peptide (95-109); 50 mM NaCl, 25 mM HEPES pH 7.4, 0.2 mM TCEP; VP-ITC; three replicates; conditions: both partners purified
T4 construct: also called full-length Cus2; recombinant wild-type Cus2
T4 sequence (looked up): T1 sequence (looked up)

[6] = molecular target: T5, Cus2 D204K with C-terminal His-tag (S. cerevisiae, UniProt P53830 1-285, D204K); experiment: as above; conditions: both partners purified
T5 construct: also called D204K mutant Cus2; recombinant Cus2^D204K; source: expressed and purified the same as wild-type Cus2, at the University of California Berkeley QB3 MacroLab
T5 sequence (looked up): T1 sequence (looked up) with D204K

[7] = molecular target: T6, Cus2 UHM (residues 177-269) (S. cerevisiae, UniProt P53830 177-269); experiment: as above; conditions: both partners purified
T6 construct: Expressed as a GST fusion from a pGEX-6p variant with a TEV cleavage site for the GST tag; also called isolated Cus2 UHM
T6 sequence (looked up): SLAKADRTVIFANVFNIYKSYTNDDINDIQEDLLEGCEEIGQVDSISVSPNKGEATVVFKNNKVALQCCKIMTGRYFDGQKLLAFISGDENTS

Tat-SF1 (residues 1-360) [8] = molecular target: T7, Tat-SF1 (residues 1-360) (human, UniProt O43719 1-360); experiment: as above; conditions: both partners purified
T7 construct: lacks the divergent acidic C-terminal expansion; Expressed as a GST fusion from a pGEX-6p variant with a TEV cleavage site for the GST tag; also called recombinant Tat-SF1
T7 sequence (looked up): T2 chain

## Tat-SF1 (from UniProt O43719)
[1]
  Kd: 800 nM

## ENTQDAVVPRKRKSRWDVKGYEPPDESSTAVKENSDSALVNVEG (domain or fragment, S. cerevisiae, UniProt P49955 86-129, looked up, also called ^GSTHsh155^ULM; Hsh155^ULM) [GST-Hsh155 (86-129)]
[2]
  binding result: binds

B1: SF3b1 ULM (protein)
chain: SQPPSKRKRRWDQTADQTPGATPKKLSSWDQAETPGHTPSLRWDETPGRAKGSETPGATPGSKIWDPTPSHTPAGAATPGRGDTPGHATPGHGGATSSARKNRWDETPKTERDTPGHGSGWAETPRTDRGGDSIGETPTPGASKRKSRWDETPAS
Tat-SF1 (residues 1-360) [3]
  Kd: 1800 nM

## KRKSRWDETPASQMGGSTP [ULM5]
Tat-SF1 (residues 1-360) [3]
  Kd: 800 nM

B2: Hsh155 R100D, W101A fused to the GAL4 activation domain (natural protein, S. cerevisiae, UniProt P49955 1-971, looked up)
chain: MSHPIQFVNANNSDKSHQLGGQYSIPQDLRENLQKEAARIGENEKDVLQEKMETRTVQNREDSYHKRRFDMKFEPDSDTQTVTSSENTQDAVVPRKRKSDADVKGYEPPDESSTAVKENSDSALVNVEGIHDLMFFKPSDHKYFADVISKKPIDELNKDEKKERTLSMLLLKIKNGNTASRRTSMRILTDKAVTFGPEMIFNRLLPILLDRSLEDQERHLMIKTIDRVLYQLGDLTKPYVHKILVVAAPLLIDEDPMVRSTGQEIITNLSTVAGLKTILTVMRPDIENEDEYVRNVTSRAAAVVAKALGVNQLLPFINAACHSRKSWKARHTGIKIVQQIGILLGIGVLNHLTGLMSCIKDCLMDDHVPVRIVTAHTLSTLAENSYPYGIEVFNVVLEPLWKGIRSHRGKVLSSFLKAVGSMIPLMDPEYAGYYTTEAMRIIRREFDSPDDEMKKTILLVLQKCSAVESITPKFLREEIAPEFFQKFWVRRVALDRPLNKVVTYTTVTLAKKLGCSYTIDKLLTPLRDEAEPFRTMAVHAVTRTVNLLGTADLDERLETRLIDALLIAFQEQTNSDSIIFKGFGAVTVSLDIRMKPFLAPIVSTILNHLKHKTPLVRQHAADLCAILIPVIKNCHEFEMLNKLNIILYESLGEVYPEVLGSIINAMYCITSVMDLDKLQPPINQILPTLTPILRNKHRKVEVNTIKFVGLIGKLAPTYAPPKEWMRICFELLELLKSTNKEIRRSANATFGFIAEAIGPHDVLVALLNNLKVQERQLRVCTAVAIGIVAKVCGPYNVLPVIMNEYTTPETNVQNGVLKAMSFMFEYIGNMSKDYIYFITPLLEDALTDRDLVHRQTASNVITHLALNCSGTGHEDAFIHLMNLLIPNIFETSPHAIMRILEGLEALSQALGPGLFMNYIWAGLFHPAKNVRKAFWRVYNNMYVMYQDAMVPFYPVTPDNNEEYIEELDLVL
[4]
  pre-mRNA coimmunoprecipitated with Lea1-TAP in the absence of ATP (ATP-independent pre-spliceosome formation) in Hsh155^RW-DA extract relative to wild-type extract: ~11 fold

B3: Hsh155 ULM peptide (residues 95-109) (peptide, UniProt P49955 95-109, looked up)
peptide: RKRKSRWDVKGYEPP
notes: source: synthetic peptide, bought: Biomatik Corp. (98% purity)
[5]
  Kd: 32 nM
  stoichiometry N: ~1
[6]
  Kd: 1020 nM
  stoichiometry N: ~1
[7]
  Kd: 18 nM
  stoichiometry N: ~1
Tat-SF1 (residues 1-360) [8]
  Kd: 229 nM
  stoichiometry N: ~1
